Results: patent publication US20090175889A1

Key:
Experiment in all cases: cell-based or functional assay
[1] = target: human CXCR4 (on U87 human astroglioma cells stably transduced with human CXCR4) (human) (UniProt P61073)
[2] = target: HIV-1 89.6 Env glycan mutant NV3 (N301Q) (HIV-1 isolate 89.6) (UniProt Q73372)
[3] = target: HIV-1 89.6 Env glycan mutant N7 (N197Q) (HIV-1 isolate 89.6) (UniProt Q73372)
[4] = target: HIV-1 89.6 Env triple glycan mutant N67V3 (N6, N7 and NV3: N187Q, N197Q, N301Q) (HIV-1 isolate 89.6) (UniProt Q73372)

UniProt P61073, sequence (P61073 whole entry): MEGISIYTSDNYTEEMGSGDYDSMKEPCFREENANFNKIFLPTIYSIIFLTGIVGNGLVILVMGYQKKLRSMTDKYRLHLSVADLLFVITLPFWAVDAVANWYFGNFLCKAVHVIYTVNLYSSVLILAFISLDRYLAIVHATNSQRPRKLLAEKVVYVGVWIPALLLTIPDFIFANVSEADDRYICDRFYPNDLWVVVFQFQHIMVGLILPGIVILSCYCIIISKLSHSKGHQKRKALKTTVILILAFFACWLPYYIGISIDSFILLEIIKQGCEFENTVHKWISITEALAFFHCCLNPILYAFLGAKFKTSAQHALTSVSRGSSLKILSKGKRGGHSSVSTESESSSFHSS

Work on “HIV-1 89.6 Env glycan mutant N7 (N197Q) (from UniProt Q73372 32-853)” yielded a relative infectivity of pseudotyped virus in U87-CXCR4 cells in the absence of CD4 (vs WT virus) [1] of 10 fold.
“HIV-1 89.6 Env glycan mutant NV3 (N301Q) (from UniProt Q73372 32-853)” showed an increase in infectivity in CD4-negative cells as compared to WT Env [1] of 2 to 3 fold.
monoclonal antibody 2G12 showed a decrease in neutralization sensitivity (vs WT) [2] of 2 to 3 fold and an increase in neutralization sensitivity (vs WT) [3] of 3 fold.
Substance monoclonal antibody 4E10 has an increase in neutralization sensitivity (vs WT) [4] of 3 fold and an increase in neutralization sensitivity (vs WT) [3] of 3 fold.
Substance monoclonal antibody 17b has a sensitivity to 17b without sCD4, compared to the WT or the N6 and NV3 mutants in the presence of sCD4 [4] of 30 fold and a sensitivity to 17b without sCD4, compared to the WT or the N6 and NV3 mutants in the presence of sCD4 [3] of 30 fold.
With monoclonal antibody IgG1b12 the enhancement in neutralization sensitivity compared to wild-type 89.6 [3] was 60 fold.
With “recombinant sCD4-Ig (from UniProt P01730 26-204) (Fc fusion)” the enhancement in neutralization sensitivity compared to wild-type 89.6 [3] was 50 fold.
